From patent US20240287172A1 (SCIRHOM, published 2024)

B1: antibody 3 (antibody, V domains shown)
VH: QVTLKESGPGILQPSQTLSLTCSFSGFSLTTFAMGIGWVRQPSGKGLEWLAHIWWDGEKYNNPVLKSRLTISKDTSKNQVFLRIANVDTPDTATYYCARISSIYYIIDNWGQGTSVTVSS
VL: DIVLTQSPATLSVTPGHSVSLSCRASQSISNNLHWYQKKSHESPRLLIKYVSQSISGIPSRFSGSGSGTDFTLSINSVETEDFGMYFCQQSYNWPLTFGAGTKLELK
notes: mouse IgG, kappa light chain; also called clone #3; purified antibody 3
B2: antibody 50 (antibody, V domains shown)
VH: QVQLQQSGAELVRPGASVKVSCKASGYAFSNYLIEWVKQRPGQGLEWIGVINPGSGFTKYNEKFKGKATLTADKSSSTAYMQLSSLTSEDSAVYFCARGLYRAMDYWGQGTSVTVSS
VL: DIQMTQSPASQSASLGESVTITCLASQTIGTWLAWYQQKPGKSPQLLIYAAASLADGVPSRFSGGGSGTKFSFKISSLQAEDFVNYYCQQIYSTPYTFGGGTKLEIK
notes: mouse IgG, kappa light chain; also called clone #50; purified antibody 50

Assays:
[1] = biological target: T1, hiR2-FL-N584A-T7 (human, UniProt Q6PJF5 1-856); assay: FACS on MEF-DKO cells expressing the variant, 3 µg/ml antibody
T1 sequence: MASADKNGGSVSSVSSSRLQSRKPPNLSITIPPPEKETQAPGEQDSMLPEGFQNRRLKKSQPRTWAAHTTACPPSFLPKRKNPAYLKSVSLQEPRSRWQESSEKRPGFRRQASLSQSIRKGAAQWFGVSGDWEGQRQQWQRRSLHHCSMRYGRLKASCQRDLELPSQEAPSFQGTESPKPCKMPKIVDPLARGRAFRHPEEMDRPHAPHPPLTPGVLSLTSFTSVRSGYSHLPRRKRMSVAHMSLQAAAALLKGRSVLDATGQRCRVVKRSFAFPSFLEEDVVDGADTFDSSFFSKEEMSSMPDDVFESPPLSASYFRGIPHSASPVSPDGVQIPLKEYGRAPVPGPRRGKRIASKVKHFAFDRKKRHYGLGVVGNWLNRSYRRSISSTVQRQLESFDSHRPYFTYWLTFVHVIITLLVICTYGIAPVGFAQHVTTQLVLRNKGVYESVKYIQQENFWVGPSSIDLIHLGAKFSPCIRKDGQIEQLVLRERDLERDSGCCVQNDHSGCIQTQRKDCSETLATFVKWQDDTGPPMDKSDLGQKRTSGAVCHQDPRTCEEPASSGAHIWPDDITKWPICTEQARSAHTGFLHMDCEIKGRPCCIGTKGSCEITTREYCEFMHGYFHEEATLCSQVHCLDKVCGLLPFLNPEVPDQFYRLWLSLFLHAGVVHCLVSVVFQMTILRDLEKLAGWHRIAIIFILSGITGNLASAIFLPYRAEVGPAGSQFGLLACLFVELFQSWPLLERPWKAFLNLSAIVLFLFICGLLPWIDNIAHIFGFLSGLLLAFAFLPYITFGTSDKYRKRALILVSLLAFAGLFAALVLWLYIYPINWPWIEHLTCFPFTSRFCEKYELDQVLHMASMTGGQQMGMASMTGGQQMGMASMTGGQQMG
Method in brief: (§1)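 Flow cytometry read-out of binding to variant-expressing cells after two-step staining on ice: 1 h with antibody at 3 μg/ml, then 1 h with PE-labelled goat anti-mouse IgG F(ab′)2 diluted 1:100. Controls received FACS buffer without primary antibody.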

[2] = biological target: T2, hiR2-FL-H505A-T7 (human, UniProt Q6PJF5 1-856); assay: as above
T2 sequence: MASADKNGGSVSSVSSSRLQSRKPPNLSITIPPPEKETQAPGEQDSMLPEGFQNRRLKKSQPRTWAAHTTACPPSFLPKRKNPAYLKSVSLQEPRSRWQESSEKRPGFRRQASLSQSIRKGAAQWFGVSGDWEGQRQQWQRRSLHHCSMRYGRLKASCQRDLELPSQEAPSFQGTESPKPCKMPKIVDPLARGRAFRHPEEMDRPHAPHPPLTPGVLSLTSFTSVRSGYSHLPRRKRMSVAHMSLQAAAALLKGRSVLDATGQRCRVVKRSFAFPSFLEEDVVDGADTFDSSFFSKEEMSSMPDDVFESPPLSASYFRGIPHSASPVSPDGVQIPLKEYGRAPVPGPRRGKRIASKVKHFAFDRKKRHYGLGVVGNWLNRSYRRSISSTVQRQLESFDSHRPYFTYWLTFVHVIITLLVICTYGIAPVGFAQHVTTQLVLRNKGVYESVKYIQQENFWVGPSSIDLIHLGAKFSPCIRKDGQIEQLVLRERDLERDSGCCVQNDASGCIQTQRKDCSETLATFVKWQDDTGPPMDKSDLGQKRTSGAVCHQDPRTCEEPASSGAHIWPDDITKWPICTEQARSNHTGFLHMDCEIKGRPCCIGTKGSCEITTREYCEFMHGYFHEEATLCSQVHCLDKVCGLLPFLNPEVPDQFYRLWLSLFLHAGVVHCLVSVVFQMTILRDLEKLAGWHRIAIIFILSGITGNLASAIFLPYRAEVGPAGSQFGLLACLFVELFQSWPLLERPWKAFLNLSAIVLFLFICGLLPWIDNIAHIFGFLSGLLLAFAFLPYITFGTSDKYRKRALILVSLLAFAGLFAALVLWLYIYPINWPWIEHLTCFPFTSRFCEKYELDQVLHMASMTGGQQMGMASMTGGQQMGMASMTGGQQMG
Method in brief: as §1

Binder	loss of binding vs wild type [1] [%]	loss of binding vs wild type [2] [%]
B1	≥ 30	
B2		≥ 30
